Columns and labels:
[1] = substrate: O=c1[nH]cnc2nc[nH]c12; experiment: purified protein, by the assay type; details: other: 0.03 M phosphate buffer, 0.012 M MgCl2, 1 mM DTT, pH 7.4, 25 °C, bases at 500 μM PRib-PP, PRib-PP at 40 μM guanine
[2] = substrate: O=P(O)(O)OC[C@H]1O[C@H](OP(=O)(O)OP(=O)(O)O)[C@H](O)[C@@H]1O; experiment: purified protein, by the assay type; details: other: 0.03 M phosphate buffer, 0.012 M MgCl2, 1 mM DTT, pH 7.4, 25 °C, bases at 500 μM PRib-PP, PRib-PP at 40 μM guanine

B1: TbrHGPRT (Trypanosoma brucei brucei) (protein)
chain: MEPACKYDFATSVLFTEAELHTRMRGVAQRIADDYSNCNLKPLENPLVIVSVLKGSFVFTADMVRILGDFGVPTRVEFLRASSYGHDTKSCGRVDVKADGLCDIRGKHVLVLEDILDTALTLREVVDSLKKSEPASIKTLVAIDKPGGRKIPFTAEYVVADVPNVFVVGYGLDYDQSYREVRDVVILKPSVYETWGKELERRKAAGEAKR
B1 was tested, and the Km [1] was 5.5 ± 0.3 µM, the kcat [1] was 17.1 s⁻¹ and the kcat/Km [1] was 3.1e+06 M⁻¹ s⁻¹. It also gave a Km [2] of 103 ± 16 µM.

Source: PMC5081515, “Crystal structures and inhibition of Trypanosoma brucei hypoxanthine–guanine phosphoribosyltransferase” (Scientific Reports, 2016)
